Measurements as given in article PMC6718144, “Structure of the archaeal chemotaxis protein CheY in a domain-swapped dimeric conformation” (Acta Crystallographica. Section F, Structural Biology …, 2019).

Target: the molecule itself
Assay: cross-linking; glutaraldehyde, incubation 1, 2, 5 and 10 min before quenching; Coomassie-stained SDS-PAGE

B1: CheF from Pyrococcus horikoshii (PhCheF), non-His-tagged (natural protein, P. horikoshii)
chain: MPIFEARVKVGISSSWVTSRKVSWRDAIAQIESDRIVVKYLKMGEVVGEDSFPFSALIDLGVRIPDELKLNPEKDHFGIKFYIPGRGELLVIFTIEENLLIYDEKKFSEFVHKVFEVLINGKTVMLQLARIIGGAVNMESKWEEGWLRVIKVKSARTQKTERSIVVIIKDKRPVSIFSDLEDIEIEEVDMNGKRVRAWKIRHFHIDQSVTSYLYIPDKQTQLYVLRYLLKYNPAIMEFIMKVSDDFPTLKSEFQEIMEKEIKELEALDEMEKQILVALYSGINPLELHQFLGVSEKEIEEIYDRMIDKGLLKIVMIRKIVDLTNEGRKIVNKLLKYGLVSM
notes: CheF, Pyrococcus horikoshii, ORF PH0494, UniProt O58230; also called PH0494; source: E. coli BL21 Gold (DE3); purified (heating to 80°C, SEC); as lysate supernatant in the pull-down
With B1 the “stoichiometry N” value was 2.
